# Reference: patent US6060451
# pKi: −log10 of the molar value.
# Columns and labels:
# human α-thrombin (human) [1] = biological target: human α-thrombin (human) (UniProt P00734); assay: inhibition of thrombin-mediated hydrolysis of Tosyl-Gly-Pro-Arg-AMC (fluorogenic amidolytic assay)
# [2] = biological target: bovine α-thrombin (bovine) (UniProt P00735); assay: as above
# human α-thrombin (human) [3] = biological target: human α-thrombin (human) (UniProt P00734)
# [4] = biological target: bovine α-thrombin (bovine) (UniProt P00735)
# thrombin = assay: Ki, antithrombin activity in vitro (amidolytic assay of thrombin activity)
Substance,pKi (human α-thrombin (human) [1]),other results
P51 hirudin^45-55 (from UniProt P01050) (peptide),6.96,pKi [2]: 6.14
"P53 [D-Phe^45, Arg^47 ]hirudin^45-65 (peptide)",,"IC50, inhibition of fibrin clot formation (human α-thrombin (human) [3]): 4 nM; IC50, inhibition of fibrin clot formation [4]: 70 nM"
"P54 [Thr^45, Arg^47, D-Pro^48 ]hirudin^45-65 (from UniProt P01050) (peptide)",7.14,
"P73 [D-Phe^45, Ala^47 ]hirudin^45-65 (from UniProt P01050) (peptide)",7.39,
r-Hirudin HV2 (from UniProt P09945),12.42,pKi (thrombin): 12.40
